Reference: publication PMC7498313, “The Sac10b homolog from Sulfolobus islandicus is an RNA chaperone”
“And” between values parts separate entries of the source, which are not always exact repeats. Equal entries are not always repeated. Each block holds one molecule with its values, some of them ahead of it.

What was measured:
[1] = biological target: N-terminally truncated Sis10b (ΔN12) (Sulfolobus islandicus REY15A); assay: cross-linking; 10 μg protein cross-linked with 0.5 mM DSP, with or without 5 μg of a 25-bp dsRNA, 30 min at 25 or 55°C, 20 mM potassium phosphate pH 7.6, 50 mM KCl; 15% SDS-PAGE, Coomassie stain
[2] = biological target: Sis10b M20E/L24E/L27E/F60E (Sulfolobus islandicus REY15A); assay: as above
Sis10b wild-type = biological target: T1, Sis10b wild-type (Sulfolobus islandicus REY15A, UniProt F0NHH1 1-97); assay: EMSA; 55°C; EMSA: 20 mM HEPES-NaOH pH 7.0, 1 mM DTT, 100 ug/ml BSA, 6% glycerol, 30 min at 25, 37 or 55°C; gel in 0.5x TBE at the same temperature; details: protein: recombinant, tags: none (NdeI/XhoI pET30a, stop codon in reverse primer), chain copies: 2
T1 sequence: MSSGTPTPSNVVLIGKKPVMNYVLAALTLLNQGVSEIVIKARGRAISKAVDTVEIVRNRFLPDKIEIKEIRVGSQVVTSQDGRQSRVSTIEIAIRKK

- stoichiometry N [1]: 2 and 4
Molecule: N-terminally truncated Sis10b (ΔN12) (domain or fragment)

- stoichiometry N [2]: 5 and 3
Molecule: Sis10b M20E/L24E/L27E/F60E

The remaining lines, values behind:

B1: 44-bp dsRNA (dsRNA)
RNA 1: UGACUUCCGCGCGUGAGCUCGAUUCCACAUACCCUAAAUCGCUC
RNA 2: GAGCGAUUUAGGGUAUGUGGAAUCGAGCUCACGCGCGGAAGUCA
- Kd (Sis10b wild-type; label: 5' 32P on top strand, blunt): ~29.4 nM

Molecule: UGACUUCCGCGCGUGAGCUCGAUUCCACAUACCCUAAAUCGCUC (ssRNA) [44-nt ssRNA (t)]
- Kd (Sis10b wild-type; label: 5' 32P, single strand): ~5.3 nM
